In publication PMC3427469:

Columns and labels:
FLAG-WAVE2 = FLAG-WAVE2 (UniProt Q9Y6W5); test: co-IP
GST-WAVE2 = GST-WAVE2 (UniProt Q9Y6W5); test: pull-down
Sequence of GST-WAVE2 (Q9Y6W5 whole entry): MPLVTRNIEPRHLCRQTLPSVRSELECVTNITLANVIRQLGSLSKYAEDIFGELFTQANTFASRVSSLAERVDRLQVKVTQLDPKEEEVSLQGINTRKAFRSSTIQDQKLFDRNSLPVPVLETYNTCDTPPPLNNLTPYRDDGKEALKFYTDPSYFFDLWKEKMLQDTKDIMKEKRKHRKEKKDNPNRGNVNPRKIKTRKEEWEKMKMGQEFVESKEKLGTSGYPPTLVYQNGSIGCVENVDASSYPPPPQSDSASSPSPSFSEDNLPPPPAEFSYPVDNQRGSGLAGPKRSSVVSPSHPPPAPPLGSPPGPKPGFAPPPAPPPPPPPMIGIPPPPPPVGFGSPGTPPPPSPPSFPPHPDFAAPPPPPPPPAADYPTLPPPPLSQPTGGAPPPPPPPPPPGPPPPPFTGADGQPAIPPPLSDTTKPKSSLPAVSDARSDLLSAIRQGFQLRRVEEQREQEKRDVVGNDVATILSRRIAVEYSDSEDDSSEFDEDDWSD

Sequence of FLAG-WAVE2 (Q9Y6W5 whole entry): as above

**Q.** “Arp2/3 complex, endogenous in MDA-MB-231 cells (from UniProt P61158 1-418)” was tested. Which Arp3 co-precipitated after Exo70 siRNA, percent of control siRNA-treated cells (FLAG-WAVE2) did it give?
**A.** 44%

**Q.** For “Arp2/3 complex (purified) (from UniProt P61158 1-418)”, which KD in the presence of Exo70 (GST-WAVE2) is on record?
**A.** 210 nM

**Q.** What about the Kd (GST-WAVE2) of the same substance?
**A.** 470 nM

**Q.** What about the fold increase of Arp2/3 bound in the presence of Exo70 against BSA (GST-WAVE2) of the same substance?
**A.** 3.5 fold
